Data on one substance can be found in paper PMC8683692.

For the assay, the target named is CM1021 (human) (UniProt P02768). The assay is described as follows: SDS-PAGE without and with reduction.

CM1021, sequence (P14210 whole entry, looked up, the tested form may be a part): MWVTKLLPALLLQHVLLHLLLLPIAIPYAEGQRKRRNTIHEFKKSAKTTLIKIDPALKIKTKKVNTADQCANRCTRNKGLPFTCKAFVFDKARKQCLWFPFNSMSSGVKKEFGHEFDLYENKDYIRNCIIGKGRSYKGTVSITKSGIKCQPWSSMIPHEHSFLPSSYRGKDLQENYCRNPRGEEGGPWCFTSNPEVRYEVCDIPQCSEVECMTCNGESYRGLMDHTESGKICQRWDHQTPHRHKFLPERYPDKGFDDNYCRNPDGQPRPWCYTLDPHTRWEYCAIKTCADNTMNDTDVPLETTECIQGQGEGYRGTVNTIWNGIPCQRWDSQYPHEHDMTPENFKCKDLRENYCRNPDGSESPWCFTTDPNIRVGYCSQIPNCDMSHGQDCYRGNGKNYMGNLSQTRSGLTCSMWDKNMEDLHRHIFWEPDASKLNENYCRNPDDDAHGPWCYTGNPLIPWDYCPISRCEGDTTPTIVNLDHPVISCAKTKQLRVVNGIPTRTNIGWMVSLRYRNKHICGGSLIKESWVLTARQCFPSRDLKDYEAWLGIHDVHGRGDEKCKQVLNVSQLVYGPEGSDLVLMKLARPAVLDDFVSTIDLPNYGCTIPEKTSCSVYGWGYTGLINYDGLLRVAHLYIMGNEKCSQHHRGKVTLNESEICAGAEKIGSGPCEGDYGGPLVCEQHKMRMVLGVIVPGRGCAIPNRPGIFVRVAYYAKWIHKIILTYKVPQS
CM1021, sequence (P02768 whole entry, looked up, the tested form may be a part): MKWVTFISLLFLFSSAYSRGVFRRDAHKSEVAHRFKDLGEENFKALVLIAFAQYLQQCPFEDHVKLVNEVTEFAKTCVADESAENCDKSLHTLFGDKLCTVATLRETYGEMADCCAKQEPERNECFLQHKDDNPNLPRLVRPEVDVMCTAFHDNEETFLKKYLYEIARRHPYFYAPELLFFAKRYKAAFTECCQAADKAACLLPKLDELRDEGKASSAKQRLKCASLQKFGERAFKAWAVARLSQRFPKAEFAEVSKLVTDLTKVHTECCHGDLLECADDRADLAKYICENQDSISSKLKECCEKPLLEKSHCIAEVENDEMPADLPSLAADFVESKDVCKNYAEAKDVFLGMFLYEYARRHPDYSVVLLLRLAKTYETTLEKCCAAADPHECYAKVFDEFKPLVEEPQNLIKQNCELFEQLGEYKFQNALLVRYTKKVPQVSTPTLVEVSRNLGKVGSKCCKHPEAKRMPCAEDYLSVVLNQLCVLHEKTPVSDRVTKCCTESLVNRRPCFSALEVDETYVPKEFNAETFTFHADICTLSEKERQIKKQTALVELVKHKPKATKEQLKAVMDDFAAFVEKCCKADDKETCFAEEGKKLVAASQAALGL

With “CM1021 (from UniProt P02768 1-18; P14210 124-210) (Fc fusion)”, the stoichiometry N is 2.
